± gives the standard deviation of the averaged measurements.
Tested on: ATP
Experiment: switch fluorescence ratio, 500 uM ATP over buffer (Cy3 cluster intensity, sum of 5 cycles each) (fold (ratio)); higher = stronger signal-on switching upon ATP binding; sequences stand for … in TCGTCGGCAGCGTCAGATGTGTATAAGAGACAGTTTTTTTTTTTTTTTTTTTTTTTTT…TC
Conditions: aptamer strand: ATP DNA aptamer (quencher-CACCTGGGGGAGTATTGCGGAGGAAGG + anchor), 100 nM annealed; ATP concentration: 500 uM
Procedure, shortened: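 Values give the fluorescence ratio for each switch-domain sequence, averaged from per-cluster ratios of summed target-cycle to summed buffer-cycle Cy3 intensity. The Cy3-labelled switching-strand clusters sat on a modified Illumina MiSeq flow-cell, were annealed to 100 nM quencher-labelled ATP aptamer, and were imaged in selection buffer, then after 15 min with 500 uM ATP at 22 °C. Five cycles ran with NaOH stripping and re-annealing between them, and clusters outside 100-1000 RFU were excluded.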
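Further: ATP exposure 15 min at 22 °C before imaging.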

Sequence	switch fluorescence ratio
CATGGGGTTG	0.978 ± 0.02
CATGGGTTGC	0.99 ± 0.029
CATGGTAAAT	0.984 ± 0.018
CATGGTACGC	1.055 ± 0.0043
CATGGTAGGA	0.975 ± 0.026
CATGGTGTTA	1.01 ± 0.025
CATGGTTGG	1.01 ± 0.051
CATGTACTTT	1.08 ± 0.031
CATGTATGGA	1.01 ± 0.041
CATGTCAAGC	1.05 ± 0.024
CATGTGCTTC	1.03 ± 0.0077
CATGTGGTCA	1.03 ± 0.046
CATGTTGCTG	1.09 ± 0.029
CATTAAGGGT	0.992 ± 0.029
CATTAATTTG	1.01 ± 0.012
CATTAATTTT	0.968 ± 0.044
CATTACAGTG	1.01 ± 0.014
CATTACGTGC	0.996 ± 0.016
CATTACTGTA	1.24 ± 0.076
CATTAGATCG	0.997 ± 0.044
CATTATGGGT	0.95 ± 0.013
CATTATTGGG	0.9851 ± 0.0017
CATTCAGGGG	1.2 ± 0.061
CATTCATGGA	1.03 ± 0.035
CATTCGCCTC	2.218 ± 0.015

Sequence	switch fluorescence ratio
CATTCGGGGC	1.11 ± 0.038
CATTCGGGGT	0.994 ± 0.029
CATTCGTTTC	1.15 ± 0.05
CATTCTGACG	1.18 ± 0.033
CATTCTGCGG	1.049 ± 0.002
CATTCTTTGG	0.9836 ± 0.0041
CATTGAAGAG	0.998 ± 0.013
CATTGAGTTC	0.978 ± 0.014
CATTGCGGGA	1.02 ± 0.024
CATTGGAAGA	1.02 ± 0.015
CATTGGGACA	1.02 ± 0.019
CATTGGGTGC	1.0458 ± 0.00093
CATTGTAATT	0.981 ± 0.011
CATTGTATGT	0.9421 ± 0.0087
CATTGTTAAT	1.01 ± 0.04
CATTGTTGAG	1.01 ± 0.049
CATTGTTGAT	0.989 ± 0.017
CATTGTTTTG	0.9676 ± 0.0041
CATTTAAAAA	0.919 ± 0.032
CATTTAAGAT	0.997 ± 0.024
CATTTACCGG	0.996 ± 0.056
CATTTACTAT	1.05 ± 0.021
CATTTAGGTT	0.982 ± 0.019
CATTTATGCC	1.17 ± 0.31
CATTTCCTGA	1.02 ± 0.038

Sequence	switch fluorescence ratio
CATTTCCTGG	1.01 ± 0.044
CATTTGAGTG	1 ± 0.042
CATTTGATTG	0.988 ± 0.013
CATTTGCCTT	1.03 ± 0.035
CATTTGGAAT	1.7 ± 0.97
CATTTGGGAC	1.02 ± 0.047
CATTTGGGCG	1.03 ± 0.015
CATTTTCCGG	1.11 ± 0.16
CATTTTCGGC	1.01 ± 0.039
CATTTTGTTG	1.01 ± 0.024
CATTTTTAAG	1 ± 0.011
CATTTTTCTG	0.963 ± 0.06
CCAAAAAAAG	1.03 ± 0.032
CCAAACGAGT	0.9661 ± 0.0041
CCAAAGTATA	1.166 ± 0.0013
CCAAATTGTG	1.03 ± 0.03
CCAACAGCCC	1.12 ± 0.079
CCAACATGAT	1.017 ± 0.007
CCAACCATTG	1.03 ± 0.011
CCAACTTTAC	1.57 ± 0.037
CCAAGGAGAC	1.35 ± 0.052
CCAAGGCTGG	1.02 ± 0.043
CCAAGGGAGG	1.01 ± 0.03
CCAAGGGGGG	1.11 ± 0.22
CCAAGGGTGC	1.63 ± 0.11

Sequence	switch fluorescence ratio
CCAAGTAAGG	1.08 ± 0.031
CCAATAACGC	1.22 ± 0.074
CCAATCACGG	1.09 ± 0.012
CCAATCTGAC	1.3 ± 0.14
CCAATGCAGC	3.22 ± 0.27
CCAATGGATA	1.03 ± 0.02
CCAATTGAAG	1.02 ± 0.016
CCAATTGCAT	1.12 ± 0.021
CCAATTGGTG	1.03 ± 0.016
CCAATTTATG	0.9919 ± 0.0078
CCAATTTGAA	0.9913 ± 0.0081
CCAATTTGTG	1 ± 0.028
CCAATTTTAC	1.39 ± 0.055
CCACAATTTT	1.43 ± 0.63
CCACCAATTT	1.8 ± 1.2
CCACGGGGGG	1.27 ± 0.1
CCACTGGGCG	1.07 ± 0.014
CCACTGGGGG	1.04 ± 0.028
CCAGACGGGC	1.07 ± 0.059
CCAGACGGTC	1.04 ± 0.085
CCAGAGGTTG	0.999 ± 0.021
CCAGATAACG	1.04 ± 0.022
CCAGATTACT	1.01 ± 0.015
CCAGATTTGT	1.01 ± 0.016
CCAGCACCTC	1.45 ± 0.039

Sequence	switch fluorescence ratio
CCAGCATAAT	1.41 ± 0.05
CCAGCCGTCG	1.07 ± 0.04
CCAGCGTGCT	1.11 ± 0.08
CCAGCTAGTT	1.05 ± 0.086
CCAGGACGTA	1.02 ± 0.027
CCAGGAGGCG	0.999 ± 0.015
CCAGGAGTAG	1.034 ± 0.0039
CCAGGAGTCA	1.032 ± 0.0017
CCAGGATGCG	0.971 ± 0.035
CCAGGATTAT	1.027 ± 0.0034
CCAGGCTTGA	1.04 ± 0.052
CCAGGCTTGT	1.01 ± 0.018
CCAGGGACGA	1.02 ± 0.024
CCAGGGGAGG	1.11 ± 0.071
CCAGGGGCTG	1.67 ± 0.89
CCAGGGGCTT	1.31 ± 0.41
CCAGGGGGTC	1.11 ± 0.14
CCAGGGTCGC	0.9965 ± 0.0067
CCAGGTGGCT	2.64 ± 0.3
CCAGGTTTGG	1.03 ± 0.024
CCAGTAAGTG	1.09 ± 0.03
CCAGTAATTT	1.038 ± 0.0029
CCAGTACTTC	1.11 ± 0.023
CCAGTCAACG	0.9802 ± 0.0085
CCAGTGATGT	1.04 ± 0.024

Sequence	switch fluorescence ratio
CCAGTGTATA	1.002 ± 0.0013
CCATAACGGG	0.97548 ± 0.0008
CCATAGGAAT	1.06 ± 0.023
CCATAGGGGG	0.989 ± 0.025
CCATATAGTT	0.986 ± 0.03
CCATATCGTG	0.988 ± 0.026
CCATATGGGG	1.01 ± 0.019
CCATATTTAG	0.996 ± 0.028
CCATCGGCTG	1.06 ± 0.038
CCATCGTAAT	4.84 ± 1.1
CCATGAGCAG	2.06 ± 0.11
CCATGGGTTG	1.01 ± 0.016
CCATGTTGAT	1 ± 0.039
CCATTAATCT	1.34 ± 0.46
CCATTCATTT	0.991 ± 0.02
CCATTCTTGA	0.996 ± 0.037
CCATTCTTGG	0.977 ± 0.018
CCATTGTTAT	0.988 ± 0.017
CCATTGTTTT	0.997 ± 0.018
CCATTTGAGA	0.998 ± 0.022
CCATTTTGCA	1.04 ± 0.05
CCCAAGGGCA	1.02 ± 0.051
CCCAATTTGC	1.32 ± 0.022
CCCACAGGAC	1.73 ± 0.14
CCCAGCTTGT	1.035 ± 0.0031

Sequence	switch fluorescence ratio
CCCAGGCGGA	1.65 ± 0.78
CCCAGGTAGC	4.65 ± 0.43
CCCATGTATC	1.09 ± 0.011
CCCATTTGTA	1 ± 0.026
CCCATTTTGT	0.991 ± 0.02
CCCCATTCCG	1.04 ± 0.022
CCCCGAAACT	2.28 ± 1.5
CCCCGAGCCG	1.02 ± 0.06
CCCGATTTTT	0.993 ± 0.017
CCCGCTGCTT	1.33 ± 0.021
CCCGGCCATT	1.05 ± 0.013
CCCGGCGAGT	1.08 ± 0.038
CCCGGGGGAA	1.03 ± 0.014
CCCGGGTATG	1.03 ± 0.02
CCCGGGTTAG	1.08 ± 0.028
CCCTAATACG	1.76 ± 0.044
CCCTGGGGTA	1.07 ± 0.056
CCCTGTAGGA	1.04 ± 0.088
CCCTTGACGG	1.07 ± 0.14
CCCTTTTTTG	1.02 ± 0.05
CCGAAATTTT	1.05 ± 0.016
CCGAACACCT	1.219 ± 0.0037
CCGAAGGGGC	1.52 ± 0.083
CCGAATATGA	1.55 ± 0.079
CCGACATGGT	1.27 ± 0.11

Sequence	switch fluorescence ratio
CCGACGTAGG	2.494 ± 0.017
CCGAGGGCAG	2.75 ± 0.36
CCGAGTAGGG	1.074 ± 0.0031
CCGAGTGGAG	1.083 ± 0.0024
CCGAGTTATA	2.15 ± 0.013
CCGATCGTGG	2.86 ± 1.9
CCGATGTATA	1.35 ± 0.053
CCGATTCGGG	1.012 ± 0.0064
CCGATTGGTC	1.117 ± 0.0062
CCGATTTATA	1.013 ± 0.0052
CCGCATTTTT	2.19 ± 0.82
CCGCCCTATT	1.4 ± 0.024
CCGCGCACCG	1.73 ± 0.053
CCGCGGATGG	1.25 ± 0.15
CCGCGGCGGG	1.04 ± 0.028
CCGCGTCTGT	1.24 ± 0.032
CCGCTGGGCT	1.83 ± 0.056
CCGCTTTTAT	2.69 ± 0.48
CCGGAAACCA	1.01 ± 0.021
CCGGAAATTT	1.01 ± 0.019
CCGGAAGGGC	1.84 ± 0.69
CCGGAGTGGA	2.56 ± 1.3
CCGGATTATG	1.05 ± 0.016
CCGGCCCACA	1.266 ± 0.0065
CCGGCCCCGG	1.68 ± 0.028

From the supplement of paper PMC10126150
